The source of these data is PMC3637433 (The FEBS journal, 2013).

Read-outs that look alike come from different tables or passages of the source. Square brackets hold non-standard residues; d marks the D form. Ends that are not written are not given here. sY = N[C@@H](Cc1ccc(OS(=O)(=O)O)cc1)C(=O)O

One assay has as its target T1, RANTES (Homo sapiens, UniProt P13501, E89S).
T1 sequence (P13501 24-91 E89S): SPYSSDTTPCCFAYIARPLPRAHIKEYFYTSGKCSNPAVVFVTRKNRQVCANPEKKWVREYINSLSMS
Nature of the assay: 1H-15N-HSQC NMR titration of U-15N-RANTES. The assay is classed as binding. Conditions: 293 K, pH 4.8; peptide up to 2.9 mM, 64 molar excess relative to RANTES; KD could not be extracted.

The target of assay [1] is RANTES (E66S mutant of human RANTES) (human). Nature of the assay: 1H-15N-HSQC, intensities of monomer and dimer cross-peaks.
For assay [2] the target is unchanged. The assay is described as above. The source holds these as a separate data set.
Assay [3] has the same target. The assay is described as above. The source holds these as a separate data set.
The target is the same in assay [4]. Described as above. This is another data set of the same source.
For assay [5] the target is unchanged. Described as above. This is another data set of the same source.
The target of assay [6] is CCR5 N-terminal peptide (Nt-CCR5) N-terminus (Homo sapiens) (UniProt P51681). Conditions: cited from earlier work.
Sequence of CCR5 N-terminal peptide (Nt-CCR5) N-terminus (Homo sapiens) (P51681 1-27): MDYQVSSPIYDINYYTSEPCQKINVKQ
The target in assay [7] is RANTES (E66S mutant of human RANTES) (human). Nature of the assay: NMR titration.
Assay [8] shares this target. The experiment in a line: NMR titration. The source holds these as a separate data set.
The target is the same in assay [9]. The experiment in a line: NMR titration. The source holds these as a separate data set.

TRSQKEGLHYTSSSHFPYSQYQ [ECL2]: the “Saturation of RANTES chemical shift changes on titration” value on RANTES is “saturation was not achieved”.

For the molecule “RANTES (E66S mutant of human RANTES) (ligand)”, the ratio of monomer/dimer peak intensities, IM/ID in [1] was 0.13; in [2], 1.57; in [3] it was 0.45; in assay [4], 0.2; in assay [5] it was less than 0.1. The stoichiometry N (in general, a count of units in the complex or per binding partner) in [3] was 2.

With RANTES (from UniProt P13501), in assay [6], the Kd – broadly, the equilibrium constant for the complex coming apart – was 1000 nM.

In the case of MDYQVSSPI[sY]DIN[sY]YTSEPAQKINVKQ [Nt-CCR5 peptide (CCR5 residues 1-27), sulfated at Y10 and Y14], the values for the Kd in assay [7], in assay [8] and in assay [9] were 84 µM, 100 µM and 16 µM, respectively.
